Test results reported in patent publication US20210355235A1, “Compositions and Methods For Treating Cancer with Anti-Renalase antibodies and Anti-PD1 antibodies” (YALE UNIVERSITY, priority 2017, published 2021).
Entries after “also recorded” stand apart in the source; their conditions may differ. Read-outs that look alike come from different tables or passages of the source.

How the values were obtained:
[1] = test system: melanoma cell lines; test: melanoma cells in culture, viability / growth; assay type: cell-based, human
Description: (§1) Total cell number and percentage of live cells were assessed by trypan blue exclusion, and cells were counted using a BioRad TC10 automated cell counter. For additional studies, cell viability was determined using WST-1 reagent (Roche Diagnostics, Indianapolis, Ind., USA) according to the manufacturers' instruction. Absorbances were read using a microplate reader (Power Waves XS, BioTek Instruments, Winooski, Vt., USA).

[2] = test system: A375.S2 melanoma cells; test: cell viability, WST-1 assay; assay type: cell-based, human; settings: WST-1, 72 hrs
Description: FIG. 19, comprising FIGS. 19A through 19D, is a series of images and charts showing that inhibition of RNLS signaling is cytotoxic to melanoma cells in vitro. […] FIG. 19B comprises two charts depicting relative cell viability: Left panel: Cells were treated with indicated antibodies for 72 hrs and cell viability was determined using WST-1; m28-RNLS (also known as 1D-28-4), m37-RNLS (also known as 1D-37-10): monoclonal antibodies raised against RNLS peptide RP220; Right panel: A375.S2 cells treated with increasing doses of m28-RNLS for 72 hrs and cell viability determined with a WST-1 assay; n=6, * indicates p<0.05 and ** indicates p<0.005. FIG. 19C comprises representative photos of A375.S2, SkMel28, and SkMel5 after 72 hrs incubation with either control rabbit IgG or m28-RNLS. FIG. 19D is a chart depicting relative cell viability, comprising amino acid (AA) sequence of RNLS peptide antagonist (RP220A).
as §1

[3] = test system: YUMM mouse melanoma tumor; test: anti-PD1 resistant YUMM melanoma engrafted into immunocompetent C57B6 mice; assay type: in vivo; settings: qPCR
Description: Experiments were conducted to assess the synergism between anti-RNLS antibody and anti-PD1 antibody against a tumor cell line that is resistant to anti-PD1 agents (i.e., YUMM) (FIG. 35). The anti-PD1 resistant mouse melanoma cell line (YUMM) was engrafted into immunocompetent C57B6 mice. After the engrafted YUMM tumor volume reached about 100 mm^3 (i.e., day 0), treatments were administered on days 0, 7, 9, and 12, as indicated by the arrows on […].
Experiments were conducted to measure PD1 and PD-L1 mRNA expression by qPCR in unfractioned tumor mass after treatment with anti-RNLS antibody (m28) alone, anti-PD1 antibody alone, and the combination of anti-RNLS antibody (m28) and anti-PD1 antibody (FIG. 36).
Experiments were conducted to measure CD8a mRNA expression by qPCR in unfractioned tumor mass after treatment with anti-RNLS antibody (m28) alone, anti-PD1 antibody alone, and the combination of anti-RNLS antibody (m28) and anti-PD1 antibody.

[4] = test system: PDACC (pancreatic ductal adenocarcinoma cells); test: PDACC viability with anti-RNLS antibodies, WST-1; assay type: cell-based, human; settings: 72 hrs
Description: FIG. 25, comprising FIGS. 25A through 25E, is a series of charts and images showing that inhibition of RNLS signaling is cytotoxic to cancer cells in vitro and in vivo. FIG. 25A is a chart showing relative cell viability following transient transfection of Panc1 cells using a RNLS-specific siRNA, or a non-specific control siRNA, and cell viability assayed 96 h later using the WST-1 reagent; n=6, ** indicates p<0.001. FIG. 25B is a chart showing relative cell viability when cells were treated with indicated antibodies for 72 hrs and cell viability determined using WST-1; m28-RNLS and m37-RNLS: monoclonal antibodies raised against RNLS peptide RP220, ab31291: Abcam polyclonal antibody raised against a partial sequence of RP-220; n=6, * indicates p<0.005. […] FIG. 25D is a chart showing tumor volume increase after athymic nude mice received subcutaneous injection of Panc1 cells transduced with RNLS shRNA (sh-RNLS) or control (sh-Control); tumor volume measured every […] for up to 30 days, n=6 each; * indicates p<0.05. FIG. 25E is chart showing tumor volume increase after nude mice were xenografted with BxPC3; tumor volume measured prior to treatment every 3-4 days with 2 mg/kg of either rabbit IgG as a negative control or with m28-RNLS, n=10, * indicates p<0.05.
Cell viability was assessed by trypan blue exclusion, and cells were counted using a BioRad TC10 automated counter.

[5] = test system: BxPC3 xenografted tumors; test: BxPC3 pancreatic xenograft in athymic nude mice; assay type: in vivo, mouse
Description: Immunohistochemistry was performed as described previously (Guo et al., 2012 Cancer Science. 103(8):1474-80). Briefly tumor tissues were formalin-fixed, paraffin-embedded and cut into 5-m sections on glass slides. The slides were de-paraffinized and hydrated, followed by antigen retrieval in a pressure cooker containing 10 mM sodium citrate, pH6 buffer. The sections were blocked in 3% hydrogen peroxide for 30 min and 2.5% normal horse serum in PBS/0.1% Tween20 for 1 h followed by incubation with primary antibody and isotype control IgG overnight at 4° C. The following antibodies were used in this study: m28-RNLS at 500 ng/ml; goat polyclonal anti-RNLS at 250 ng/ml (Abcam, AB31291); rabbit monoclonal anti Ki67 (Vector Lab, VP-RM04, 1:100); rabbit monoclonal anti p21 and phspho-Tyr^705-Stat3 (Cell Signaling Technologies, #2947, 1:100 and #9145, 1:400, respectively). ImmPRESS peroxidase-anti-rabbit IgG (Vector Laboratories, Burlingame, Calif., USA) was used to detect primary antibodies. The color was developed using a Vector DAB substrate kit and counterstained with hematoxylin (Vector Laboratories). Slides were observed and photographed using an Olympus BX41 microscope and camera (Olympus America Inc, Center Valley, Pa., USA).
Female athymic, 18-20 g nude mice (nu/nu) were obtained from Charles River (Willimantic, Conn.) and housed in microisolator cages, with autoclaved bedding in a specific pathogen-free facility, with a 12-h light/dark cycle.
Xenograft tumors were established by subcutaneous injection of BxPC3 cells (2×10^6 in 100 μl of PBS, pH 7.6). When the tumors reached a volume of 50-100 mm^3, the mice were divided a control group (n=14 treated with rabbit IgG, 40 μg by intraperitoneal injection (IP)), and an experimental group (n=14) that received m28-RNLS (40 μg IP, every 3 days). Tumor size was measured with digital calipers and volume was calculated according to the formula (length×width^2)×π/2. In another group of animals (n=6 each) sh-RNLS or sh-Control Panc1 cells (2×10^6 in 100 μl of PBS, pH 7.6) were injected subcutaneously. These animals received no further treatments, and tumor size and volume were measured for up to 30 days.
At the end of the study, the mice were sacrificed, the tumors were excised and immediately snap-frozen in liquid nitrogen and stored at −80° C. Apoptosis was examined using the TUNEL assay (Roche in situ Apoptosis Detection System), according to the manufacturer's instructions. Sections were examined by light microscopy and the apoptosis index was determined by counting ≥1000 cells in 5 randomly selected high-power fields (×200 magnification).

B1: m28-RNLS: rabbit anti-renalase monoclonal raised against RNLS peptide RP-220; heavy chain SEQ ID NO:9, light chain SEQ ID NO:10 (antibody)
heavy: METGLRWLLLVAVLKGVQCQSVEESGGRLVTPGTPLTLTCTVSGFSLSSFAVGWVRQAPGKGLEYIGIISSVGITRYASWAAGRFTISKTSTTVDLKITSPTTEDTATYFCARYGYSGDVNRLDLWGQGTLVTVSSGQPKAPSVFPLAPCCGDTPSSTVTLGCLVKGYLPEPVTVTWNSGTLTNGVRTFPSVRQSSGLYSLSSVVSVTSSSQPVTCNVAHPATNTKVDKTVAPSTCSKPTCPPPELLGGPSVFIFPPKPKDTLMISRTPEVTCVVVDVSQDDPEVQFTWYINNEQVRTARPPLREQQFNSTIRVVSTLPIAHQDWLRGKEFKCKVHNKALPAPIEKTISKARGQPLEPKVYTMGPPREELSSRSVSLTCMINGFYPSDISVEWEKNGKAEDNYKTTPAVLDSDGSYFLYSKLSVPTSEWQRGDVFTCSVMHEALHNHYTQKSISRSPGK
light: MDTRAPTQLLGLLLLWLPGATFAQVLTQTASPVSAAVGGTVTINCQASQSVYDNNNLAWYQQKPGQPPKQLIYGASTLASGVSSRFKGSGSGTQFTLTISGVQCDDAATYYCLGEFSCSSADCFAFGGGTEVVVKGDPVAPTVLIFPPSADLVATGTVTIVCVANKYFPDVTVTWEVDGTTQTTGIENSKTPQNSADCTYNLSSTLTLTSTQYNSHKEYTCKVTQGTTSVVQSFNRGDC
modifications: 1D-28-4 full length heavy chain amino acid; 1D-28-4 full length light chain amino acid
Q: B1 was tested. Which “melanoma cell viability / growth in culture” value [1] did it give?
A: decreased the viability of all (total of 5) melanoma cell lines tested

Q: What about the “melanoma cell viability / growth in culture” value ([1]; listed as 1D-28-4) of the same molecule?
A: inhibits melanoma cells in culture

Q: What about the cell viability [2] of the same molecule?
A: increasing levels of cytotoxicity in correlation with increasing treatment concentrations

Q: What about the “CD8a mRNA expression in unfractioned tumor mass (cytotoxic T cells)” value [3] of the same molecule?
A: activates cytotoxic T cells

Q: And the “PDACC growth / viability” value [4]?
A: inhibitory effects

Q: What about the “decrease in Ki67 expression vs IgG” value ([5]; mouse, in vivo) of the same molecule?
A: 2.5 fold

Q: What about the “increase in apoptosis (TUNEL staining) vs IgG” value ([5]; mouse, in vivo) of the same molecule?
A: ~2 fold

Q: What about the “increase in p21 expression vs IgG” value ([5]; mouse, in vivo) of the same molecule?
A: ~4 fold

Q: What about the p21 positive cells ([5]; n=14) of the same molecule?
A: 178.1 ± 11.4 positive cells/high power field

Q: And the “TUNEL positive cells (apoptosis)” value ([5]; n=14, IgG 14.8±2.3)?
A: 28.4±3.3 positive cells/high power field

Q: What about the Ki67 positive cells ([5]; n=14, IgG 340.2±11.9) of the same molecule?
A: 137.1±14.9 positive cells/high power field

Q: And the tumor volume ([5]; vs rabbit IgG, up to 3 weeks, 40 μg IP every 3 days)?
A: inhibited PDAC growth; also recorded: significant decrease in tumor volume
